Reference: US20030087319A1 (published 2003)

Tests used:
[1] = biological target: T1, recombinant active caspase-3 (PharMingen) (UniProt P42574 29-277, limits assumed); assay: in vitro binding, 35S-labeled protein with recombinant active caspase, immunoprecipitation with caspase-specific antibodies, autoradiography
T1 sequence (looked up): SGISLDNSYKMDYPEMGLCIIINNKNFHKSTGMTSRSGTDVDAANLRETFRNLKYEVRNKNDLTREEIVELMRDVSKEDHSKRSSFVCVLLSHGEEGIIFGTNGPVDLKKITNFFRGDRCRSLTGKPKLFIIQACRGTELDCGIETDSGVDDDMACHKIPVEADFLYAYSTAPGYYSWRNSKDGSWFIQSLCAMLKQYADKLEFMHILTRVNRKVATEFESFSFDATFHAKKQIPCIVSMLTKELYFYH
Experimental: Binding between livin and caspases was tested by incubating ³⁵[S]-methionine-labeled livin with recombinant active caspase-3 and -7, immunoprecipitating with caspase specific antibodies, resolving on SDS-PAGE and visualising by autoradiography. Both caspase-3 and -7 interacted with livin, but not with the deletion mutant DC89 used as a negative control. Survivin, which was previously shown to interact with these caspases using whole cell lysates (Tamm et al., ibid), also bound to both caspases in this in vitro assay.
In vitro binding reactions were performed by combining recombinant active caspase-3 or -7 (PharMingen, San Diego, Calif.) with ³⁵[S]-methionine-labeled survivin or livin (wild-type and the three deletion mutants described herein), prepared using the TNT T7 reticulocyte lysate system (Promega Corp., Madison, Wis.). Samples were incubated with polyclonal antibodies against either caspase-3 or -7 (PharMingen, San Diego, Calif.) in 0.5 ml NETN buffer [20 mM Tris (pH 8.0), 100 mM NaCl, 1 mM EDTA, and 0.2% NP-40] for 1.5 hrs at 4° C. followed by protein G sepharose (Amersham Pharmacia Biotech, Piscataway N.J.) for 30 min. All samples were then washed three times in NETN buffer, boiled in Laemmli buffer, and resolved by 4-20% SDS-PAGE. […]

[2] = biological target: DEVD-cleaving caspases (caspase-3, -6, -7, -8, and -10); assay: cell-based or functional assay

Binder	binding result [1]	decrease in caspase activity (DEVD-AFC cleavage) in HeLa cells treated with TNF-a and cycloheximide [2]
livin deletion mutant DC89 (other, 35[S]-methionine-labeled, also called DC86; NH2-terminal fragment (amino acids 1-86); not shown: myc-His tag from the vector pcDNA3.1/myc-His) MGPKDSAKCLHRGPQPSHWAAGDGPTQERCGPRSLGSPVLGLDTCRAWDHVDGQILGQLRPLTEEEEEEGAGATLSRGPAFPGMGS	no binding	–
livin expressed from pcDNA3.1/V5/His-TOPO-livin in transfected HeLa cells, Q96CA5 1-298 (protein, not shown: small tags and cut ends) MGPKDSAKCLHRGPQPSHWAAGDGPTQERCGPRSLGSPVLGLDTCRAWDHVDGQILGQLRPLTEEEEEEGAGATLSRGPAFPGMGSEELRLASFYDWPLTAEVPPELLAAAGFFHTGHQDKVRCFFCYGGLQSWKRGDDPWTEHAKWFPSCQFLLRSKGRDFVHSVQETHSQLLGSWDPWEEPEDAAPVAPSVPASGYPELPTPRREVQSESAQEPGARDVEAQLRRLQEERTCKVCLDRAVSIVFVPCGHLVCAECAPGLQLCPICRAPVRSRVRTFLS	–	15 to 20%
